We go through 1 molecule from publication PMC7610968 (Molecular cell, 2007).

The target in the assay is T1, szz-tagged mutant Rrp44-cat protein (S. cerevisiae, UniProt Q08162 1-1001, D551N).
T1 sequence (looked up): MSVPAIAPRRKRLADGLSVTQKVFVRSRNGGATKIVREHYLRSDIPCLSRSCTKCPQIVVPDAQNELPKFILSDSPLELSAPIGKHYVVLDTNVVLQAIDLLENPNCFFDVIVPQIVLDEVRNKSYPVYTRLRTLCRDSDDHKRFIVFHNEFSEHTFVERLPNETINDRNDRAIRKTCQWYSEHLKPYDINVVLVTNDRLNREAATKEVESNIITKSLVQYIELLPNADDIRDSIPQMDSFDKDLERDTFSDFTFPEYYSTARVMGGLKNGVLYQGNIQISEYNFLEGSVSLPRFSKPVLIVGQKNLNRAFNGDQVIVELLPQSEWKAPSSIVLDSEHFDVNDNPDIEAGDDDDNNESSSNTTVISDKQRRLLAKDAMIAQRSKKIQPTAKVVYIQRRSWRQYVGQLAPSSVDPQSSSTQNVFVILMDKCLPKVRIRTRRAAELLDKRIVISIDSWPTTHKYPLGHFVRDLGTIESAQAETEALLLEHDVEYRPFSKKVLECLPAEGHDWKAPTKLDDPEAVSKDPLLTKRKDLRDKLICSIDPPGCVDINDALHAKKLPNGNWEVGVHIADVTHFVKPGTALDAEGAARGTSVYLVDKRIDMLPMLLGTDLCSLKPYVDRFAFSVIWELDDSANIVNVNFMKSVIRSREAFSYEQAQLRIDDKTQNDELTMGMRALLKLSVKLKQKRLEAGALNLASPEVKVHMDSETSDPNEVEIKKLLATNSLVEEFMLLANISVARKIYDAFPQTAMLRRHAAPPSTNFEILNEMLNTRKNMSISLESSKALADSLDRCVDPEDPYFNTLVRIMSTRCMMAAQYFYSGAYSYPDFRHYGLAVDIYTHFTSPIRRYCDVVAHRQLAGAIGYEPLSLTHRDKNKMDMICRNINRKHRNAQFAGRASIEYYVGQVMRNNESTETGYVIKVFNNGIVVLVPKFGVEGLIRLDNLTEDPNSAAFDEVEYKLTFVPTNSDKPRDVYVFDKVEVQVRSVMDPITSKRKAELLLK
The assay can be described thus: co-IP.

B1: Rrp6 (natural protein, UniProt Q12149 1-733, looked up)
chain: MTSENPDVLLSRVINVVRAASSLASQDVDFYKNLDRGFSKDLKSKADKLADMANEIILSIDEHHESFELKEEDISDLWNNFGNIMDNLLEMSDHSLDKLNCAINSKSRGSDLQYLGEFSGKNFSPTKRVEKPQLKFKSPIDNSESHPFIPLLKEKPNALKPLSESLRLVDDDENNPSHYPHPYEYEIDHQEYSPEILQIREEIPSKSWDDSVPIWVDTSTELESMLEDLKNTKEIAVDLEHHDYRSYYGIVCLMQISTRERDYLVDTLKLRENLHILNEVFTNPSIVKVFHGAFMDIIWLQRDLGLYVVGLFDTYHASKAIGLPRHSLAYLLENFANFKTSKKYQLADWRIRPLSKPMTAYARADTHFLLNIYDQLRNKLIESNKLAGVLYESRNVAKRRFEYSKYRPLTPSSEVYSPIEKESPWKILMYQYNIPPEREVLVRELYQWRDLIARRDDESPRFVMPNQLLAALVAYTPTDVIGVVSLTNGVTEHVRQNAKLLANLIRDALRNIKNTNEEATPIPSSETKADGILLETISVPQIRDVMERFSVLCNSNISKSRAKPVTNSSILLGKILPREEHDIAYSKDGLPNKVKTEDIRIRAQNFKSALANLEDIIFEIEKPLVVPVKLEEIKTVDPASAPNHSPEIDNLDDLVVLKKKNIQKKQPAKEKGVTEKDAVDYSKIPNILSNKPGQNNRQQKKRRFDPSSSDSNGPRAAKKRRPAAKGKNLSFKR
In the case of B1, the “fold recovered against wild-type Rrp44-szz” value was around 2 fold.
